The assay concerns the target full-length (FL) UBQLN2 (UniProt Q9UHD9). Description: NMR titration.

One may read the Kd as a measure of binding affinity in units of concentration. A high value points to a looser complex. In turn, “ubiquitin (Ub) (from UniProt P0CG48 1-76) (natural protein; other documents disagree on this pair)” returned a Kd of 3000 nM.

The record behind these values is paper PMC9346500.
